We go through 2 molecules from patent publication US20160159869A1 (NORTHWESTERN UNIVERSITY, published 2016).

C16 = C16 alkyl tail covalently attached at the N-terminus

Assay [1] concerns the target Recombinant human BMP-2 (Medtronic Sofamor Danek) (human) (UniProt P12643). In words: capture of BMP-2 by a 20 µL PA gel from medium containing 25 ng BMP-2, 37 °C, 4 h, sandwich ELISA of the medium. For orientation: An ELISA detects its analyte on a solid surface through an enzyme-linked reagent.
Assay [2] addresses T1, Human recombinant BMP-2 with hexahistidine-tag fused at the C-terminus (AdipoGen) (human, UniProt P12643 283-396).
T1 construct: Immobilised on a Ni2+-NTA chip for SPR; also called His-BMP-2; hexahistidine-tagged BMP-2
T1 sequence: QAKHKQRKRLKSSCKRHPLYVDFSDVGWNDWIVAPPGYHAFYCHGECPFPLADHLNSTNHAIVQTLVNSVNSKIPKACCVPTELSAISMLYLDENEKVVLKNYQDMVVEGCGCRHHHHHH
The experiment in a line: SPR (Biacore 3000): His-BMP-2 captured on Ni2+-NTA chip, PA injected at pH 8.4. Fit with the 2:1 binding model. Column ka. As for the experimental part:
(§1) The SPR measurements were performed using a Biacore 3000 instrument (GE Healthcare, Pittsburgh, Pa.) equipped with a NTA Sensor Chip (GE Healthcare) at 25° C. HBS-P eluent buffer and HBS-EP dispenser buffer were purchased from GE Healthcare. NiCl 2 solution (500 μM in eluent buffer), elution buffer (300 mM imidazole and 500 mM NaCl in water), and regeneration buffer (10 mM HEPES, 150 mM NaCl, 0.005% polysorbate 20, 350 mM EDTA at pH 7.4) were prepared according to Biacore specifications. Human recombinant BMP-2 with hexahistidine-tag fused at the C-terminus (AdipoGen, San Diego, Calif.) was initially reconstituted in PBS at 20 μg/ml, and diluted to 500 nM in eluent buffer.
(§2) Ni²⁺ was first loaded on the NTA chip for 5 min at a flow rate of 20 μl/min, and then His-BMP-2 for 1.25 min at 4 μl/min. Afterwards, each PA sample was injected for 2 min at […], followed by 5 min dissociation at […]. […] To compare binding affinity of the PAs, the sensograms were processed and analyzed with BIAevaluation 4.1 software. The sensogram from blank injection was subtracted from the PA sensograms, and the apparent equilibrium dissociation constant KD was determined using 2:1 binding model, which assumes bivalent analyte interaction with two dissociation constants kd,1 and kd,2, where kd,1 is more dominant.

Assay [3] concerns the target T1, Human recombinant BMP-2 with …. The experiment in a line: SPR (Biacore 3000): His-BMP-2 captured on Ni2+-NTA chip, PA injected at pH 8.4. Fit with the 2:1 binding model. Column kd,1 (major dissociation rate constant). The method, then:
as §1, §2
(In general: Surface plasmon resonance follows binding to a sensor surface in real time, without labels.)

The target is the same in assay [4]. In words: SPR (Biacore 3000), His-BMP-2 immobilised on Ni2+-NTA chip, PA injected at pH 8.4, 2:1 binding model, KD from the major dissociation rate and ka; diluent PA (no binding segment), prepared at pH 8.4. The method, then: As a control, the BMP-2-binding PA ([…], pH 7.4) was injected to a bare NTA-dextran chip, and we observed non-specific binding of the PA to the surface (FIG. 4). It is contemplated that the fibrillar nanostructures can be entangled to the NTA-dextran surface. To circumvent this, the BMP-2-binding PA was prepared at pH 8.4, where more glutamic acid residues are deprotonated to induce greater electrostatic repulsion between the PA molecules, and sonicated the solution to further break up the supramolecular assembly. […] The best fit was obtained by using the 2:1 binding model, which had two dissociation constants: a major dissociation constant (k_{d,1}) and a minor dissociation constant (k_{d,2}) with the ratio of their contributions (R₁/R₂).
The SPR measurements were performed using a Biacore 3000 instrument (GE Healthcare, Pittsburgh, Pa.) equipped with a NTA Sensor Chip (GE Healthcare) at 25° C. HBS-P eluent buffer and HBS-EP dispenser buffer were purchased from GE Healthcare. NiCl 2 solution (500 μM in eluent buffer), elution buffer (300 mM imidazole and 500 mM NaCl in water), and regeneration buffer (10 mM HEPES, 150 mM NaCl, 0.005% polysorbate 20, 350 mM EDTA at pH 7.4) were prepared according to Biacore specifications. […]

For “diluted BMP-2-binding PA (D-BMP2b-PA), co-assembly of BMP2b-PA and diluent PA at 1:1 weight ratio”, the amount of BMP-2 bound on the gel after 4 h in assay [1] turned out to be 15.5 ng.

B1: diluent PA, C16-V3A3E3-COOH (peptide)
peptide: C16-VVVAAAEEE-OH
notes: In SPR it was used as a solution at pH 8.4; In the capture assay it was a 1 wt % nanofiber gel formed with CaCl2; also called diluent PA gel
The kon is the second-order rate constant of association. As a reminder, the koff is the rate constant with which the complex falls apart. As usually defined, the Kd is the constant that tells how readily two partners part at equilibrium. Regarding B1, in assay [2], the kon is 5300 M⁻¹ s⁻¹. For the same molecule, in assay [3], the koff turned out to be 0.011 s⁻¹. In assay [4], the dissociation constant (Kd) was 2100 nM.
